In patent US20180045741:

Target: unphosphorylated ubiquitin

B1: PINK1-3x Flag isolated from CCCP-treated cells (protein)
chain: MAVRQALGRGLQLGRALLLRFTGKPGRAYGLGRPGPAAGCVRGERPGWAAGPGAEPRRVGLGLPNRLRFFRQSVAGLAARLQRQFVVRAWGCAGPCGRAVFLAFGLGLGLIEEKQAESRRAVSACQEIQAIFTQKSKPGPDPLDTRRLQGFRLEEYLIGQSIGKGCSAAVYEATMPTLPQNLEVTKSTGLLPGRGPGTSAPGEGQERAPGAPAFPLAIKMMWNISAGSSSEAILNTMSQELVPASRVALAGEYGAVTYRKSKRGPKQLAPHPNIIRVLRAFTSSVPLLPGALVDYPDVLPSRLHPEGLGHGRTLFLVMKNYPCTLRQYLCVNTPSPRLAAMMLLQLLEGVDHLVQQGIAHRDLKSDNILVELDPDGCPWLVIADFGCCLADESIGLQLPFSSWYVDRGGNGCLMAPEVSTARPGPRAVIDYSKADAWAVGAIAYEIFGLVNPFYGQGKAHLESRSYQEAQLPALPESVPPDVRQLVRALLQREASKRPSARVAANVLHLSLWGEHILALKNLKLDKMVGWLLQQSAATLLANRLTEKCCVETKMKMLFLANLECETLCQAALLLCSWRAAL
B1 was tested, and the “phosphorylation of ubiquitin (Phos-tag assay)” value was “PINK1 isolated from CCCP-treated cells phosphorylates ubiquitin”.
